The text below walks through data of publication PMC9482650, “Quantitative fragmentomics allow affinity mapping of interactomes” (Nature Communications, 2022).

Targets include MAGI3_3, Q5TCQ9; SCRIB_4, Q14160; Inadl_7, Q8NI35; Q9P227; O15021; Q96FS4; Q13009; Q9H190; O00233; Q96SB3.
Holding throughout (assay): holdup assay
Holding throughout (design): key: below the threshold = too weak to quantify, mostly under pKd 3.1 to 4
Conditions in all cases: plain residues with an end cap or a label only (N-terminal biotin on a linker: ttds)

Another test has as its target T1, PDZD4, Q76G19.
T1 sequence (Q76G19 125-224, limits assumed, looked up): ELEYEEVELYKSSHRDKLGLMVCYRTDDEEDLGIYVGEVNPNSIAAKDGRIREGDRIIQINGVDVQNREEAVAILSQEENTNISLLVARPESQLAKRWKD

Another test deals with T2, APBA3_2, O96018.
T2 sequence (O96018 480-570, limits assumed, looked up): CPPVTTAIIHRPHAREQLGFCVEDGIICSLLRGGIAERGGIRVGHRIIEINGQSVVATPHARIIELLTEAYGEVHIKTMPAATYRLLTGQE

A further test deals with T3, NHERF3_2, Q5T2W1.
T3 sequence (Q5T2W1 129-225, limits assumed, looked up): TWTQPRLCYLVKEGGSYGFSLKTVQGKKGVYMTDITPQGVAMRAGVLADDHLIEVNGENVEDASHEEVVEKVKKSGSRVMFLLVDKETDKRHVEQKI

Another test concerns the target T4, MPDZ_3, O75970.
T4 sequence (O75970 372-473, limits assumed, looked up): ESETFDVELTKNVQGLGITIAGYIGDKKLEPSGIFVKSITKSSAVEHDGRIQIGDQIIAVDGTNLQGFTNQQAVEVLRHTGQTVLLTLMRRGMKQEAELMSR

The target of the next test is T5, RGS12, O14924.
T5 sequence (O14924 17-108, limits assumed, looked up): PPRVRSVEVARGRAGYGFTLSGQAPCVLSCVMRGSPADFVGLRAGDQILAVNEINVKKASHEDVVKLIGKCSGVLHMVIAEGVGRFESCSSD

Another test addresses T6, DVL1, O14640.
T6 sequence (O14640 246-333, limits assumed, looked up): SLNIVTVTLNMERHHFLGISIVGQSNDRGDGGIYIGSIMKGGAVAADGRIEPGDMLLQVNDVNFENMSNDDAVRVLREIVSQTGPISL

The next test concerns the target T7, PDZD2_6, O15018.
T7 sequence (O15018 2745-2839, limits assumed, looked up): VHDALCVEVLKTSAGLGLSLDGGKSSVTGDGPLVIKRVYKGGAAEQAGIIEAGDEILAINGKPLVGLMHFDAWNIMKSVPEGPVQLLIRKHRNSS

The target of the next test is T8, PARD6B, Q9BYG5.
T8 sequence (Q9BYG5 152-260, limits assumed, looked up): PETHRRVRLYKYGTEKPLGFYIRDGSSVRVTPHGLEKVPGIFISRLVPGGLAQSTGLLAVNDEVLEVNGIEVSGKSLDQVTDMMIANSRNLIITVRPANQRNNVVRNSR

The target in a further test is T9, MPP1, Q00013.
T9 sequence (Q00013 66-162, limits assumed, looked up): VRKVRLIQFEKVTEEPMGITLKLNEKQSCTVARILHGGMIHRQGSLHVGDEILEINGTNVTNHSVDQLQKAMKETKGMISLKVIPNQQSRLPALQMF

A further test concerns the target T10, MPDZ_11, O75970.
T10 sequence (O75970 1720-1817, limits assumed, looked up): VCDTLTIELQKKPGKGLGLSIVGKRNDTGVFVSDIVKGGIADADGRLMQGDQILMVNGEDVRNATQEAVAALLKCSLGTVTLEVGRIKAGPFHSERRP

The target in a further test is T11, PDZRN3_2, Q9UPQ7.
T11 sequence (Q9UPQ7 414-513, limits assumed, looked up): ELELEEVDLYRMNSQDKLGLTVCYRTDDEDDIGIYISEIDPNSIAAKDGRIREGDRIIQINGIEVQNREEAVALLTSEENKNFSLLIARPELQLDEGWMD

For the next test, the target named is T12, MPDZ_2, O75970.
T12 sequence (O75970 252-347, limits assumed, looked up): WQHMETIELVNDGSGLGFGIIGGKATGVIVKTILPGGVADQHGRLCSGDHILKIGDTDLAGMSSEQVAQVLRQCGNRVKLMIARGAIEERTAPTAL

A further test deals with T13, SYNPO2L, Q9H987.
T13 sequence (Q9H987 1-98, limits assumed, looked up): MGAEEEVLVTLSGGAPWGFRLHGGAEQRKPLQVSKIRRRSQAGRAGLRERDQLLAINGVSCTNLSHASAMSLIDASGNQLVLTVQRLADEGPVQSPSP

Another test has as its target T14, SNTB2, Q13425.
T14 sequence (Q13425 110-208, limits assumed, looked up): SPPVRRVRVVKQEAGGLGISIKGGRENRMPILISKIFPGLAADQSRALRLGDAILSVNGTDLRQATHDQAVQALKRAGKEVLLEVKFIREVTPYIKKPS

MAGI3_3, Q5TCQ9, sequence (Q5TCQ9 572-655): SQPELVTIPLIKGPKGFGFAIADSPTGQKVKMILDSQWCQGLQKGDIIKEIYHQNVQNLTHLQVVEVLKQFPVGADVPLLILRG
SCRIB_4, Q14160, sequence (Q14160 1095-1204): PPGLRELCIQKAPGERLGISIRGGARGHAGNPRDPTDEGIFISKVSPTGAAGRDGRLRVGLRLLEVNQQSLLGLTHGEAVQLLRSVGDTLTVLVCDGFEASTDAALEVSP
Inadl_7, Q8NI35, sequence (Q8NI35 1219-1332): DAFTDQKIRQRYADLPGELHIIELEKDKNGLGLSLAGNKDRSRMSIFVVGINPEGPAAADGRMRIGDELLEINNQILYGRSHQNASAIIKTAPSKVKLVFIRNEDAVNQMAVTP

Usually pKd stands for the negative decadic logarithm of the Kd, by convention in mol/L. Consider SSRTRRETQL [HPV16-E6, P03126], for which the pKd entry with PDZD4, Q76G19 is “below the threshold”; in the test with APBA3_2, O96018, “below the threshold”; with NHERF3_2, Q5T2W1 it was “below the threshold”; with MPDZ_3, O75970, “below the threshold”; in the test with RGS12, O14924, 4.37; with DVL1, O14640 it was “below the threshold”. Besides, the pKd entry in the test with PDZD2_6, O15018 is recorded as “below the threshold”; with PARD6B, Q9BYG5, “below the threshold”; with MAGI3_3, Q5TCQ9 it was “below the threshold”; with MPP1, Q00013 it was “below the threshold”; with MPDZ_11, O75970 it was “below the threshold”; with SCRIB_4, Q14160 it was “below the threshold”. The pKd result is “below the threshold” with PDZRN3_2, Q9UPQ7; “below the threshold” with MPDZ_2, O75970; “below the threshold” with SYNPO2L, Q9H987; “below the threshold” with Inadl_7, Q8NI35; 4.12 with SNTB2, Q13425.

With SRPQRTQTQV [HPV67-E6, A4U7F2], the pKd result in the test with PDZD4, Q76G19 is reported as “below the threshold”; in the test with APBA3_2, O96018, “below the threshold”; in the test with NHERF3_2, Q5T2W1, “below the threshold”; in the test with MPDZ_3, O75970, “below the threshold”; in the test with RGS12, O14924, “below the threshold”; with DVL1, O14640, “below the threshold”. Further, the pKd entry with PDZD2_6, O15018 was “below the threshold”; in the test with PARD6B, Q9BYG5 it was “below the threshold”; in the test with MAGI3_3, Q5TCQ9 it was “below the threshold”; with MPP1, Q00013 it was 5.26; in the test with MPDZ_11, O75970 it was “below the threshold”; in the test with SCRIB_4, Q14160 it was “below the threshold”. In addition, the pKd result was “below the threshold” with PDZRN3_2, Q9UPQ7; “below the threshold” with MPDZ_2, O75970; “below the threshold” with SYNPO2L, Q9H987; 4.46 in the test with Inadl_7, Q8NI35; “below the threshold” with SNTB2, Q13425.

Take SVWLRKETRV [CYSLTR2, Q9NS75]: the pKd entry with Q9P227 was “below the threshold”; with PDZD4, Q76G19 it was “below the threshold”; in the test with O15021, “below the threshold”; with APBA3_2, O96018, “below the threshold”; in the test with Q96FS4 it was “below the threshold”; with NHERF3_2, Q5T2W1, “below the threshold”. The pKd result in the test with Q13009 was “below the threshold”; with MPDZ_3, O75970, “below the threshold”; in the test with RGS12, O14924, “below the threshold”; in the test with DVL1, O14640 it was 4.32; with PDZD2_6, O15018, “below the threshold”; in the test with PARD6B, Q9BYG5 it was “below the threshold”. Further, the pKd result with MAGI3_3, Q5TCQ9 was “below the threshold”; with MPP1, Q00013 it was 6.03; with MPDZ_11, O75970, “below the threshold”; with SCRIB_4, Q14160, 4.91; with PDZRN3_2, Q9UPQ7, “below the threshold”; with Q9H190 it was “below the threshold”. Moreover, the pKd entry was “below the threshold” in the test with O00233; “below the threshold” in the test with MPDZ_2, O75970; “below the threshold” in the test with SYNPO2L, Q9H987; “below the threshold” with Inadl_7, Q8NI35; “below the threshold” with Q96SB3; 5.14 with SNTB2, Q13425.

Turning to RSLEEEESQL [GRASP, Q7Z6J2], the pKd result with Q9P227 is “below the threshold”; in the test with PDZD4, Q76G19 it was “below the threshold”; with O15021, “below the threshold”; with APBA3_2, O96018, 4.18; in the test with Q96FS4, “below the threshold”; with NHERF3_2, Q5T2W1 it was “below the threshold”. Besides, the pKd entry with Q13009 is “below the threshold”; with MPDZ_3, O75970, “below the threshold”; in the test with RGS12, O14924 it was “below the threshold”; with DVL1, O14640 it was “below the threshold”; with PDZD2_6, O15018, “below the threshold”; with PARD6B, Q9BYG5, “below the threshold”. The pKd result with MAGI3_3, Q5TCQ9 is “below the threshold”; in the test with MPP1, Q00013 it was “below the threshold”; in the test with MPDZ_11, O75970, “below the threshold”; with SCRIB_4, Q14160, “below the threshold”; with PDZRN3_2, Q9UPQ7, “below the threshold”; with Q9H190 it was “below the threshold”. Moreover, the pKd entry was “below the threshold” with O00233; “below the threshold” with MPDZ_2, O75970; “below the threshold” with SYNPO2L, Q9H987; “below the threshold” in the test with Inadl_7, Q8NI35; “below the threshold” with Q96SB3; “below the threshold” with SNTB2, Q13425.

On to PKTPPTDTSV [KIR3DL3, Q8N743], for which the pKd entry was “below the threshold” with Q9P227; 4.14 in the test with PDZD4, Q76G19; “below the threshold” with O15021; “below the threshold” with APBA3_2, O96018; “below the threshold” in the test with Q96FS4; “below the threshold” with NHERF3_2, Q5T2W1. Besides, the pKd entry in the test with Q13009 was “below the threshold”; with MPDZ_3, O75970, “below the threshold”; with RGS12, O14924, “below the threshold”; in the test with DVL1, O14640, “below the threshold”; in the test with PDZD2_6, O15018, “below the threshold”; with PARD6B, Q9BYG5 it was “below the threshold”. Also, the pKd result is given as “below the threshold” with MAGI3_3, Q5TCQ9; “below the threshold” with MPP1, Q00013; “below the threshold” in the test with MPDZ_11, O75970; “below the threshold” in the test with SCRIB_4, Q14160; “below the threshold” with PDZRN3_2, Q9UPQ7; “below the threshold” with Q9H190. In addition, the pKd entry is “below the threshold” with O00233; “below the threshold” in the test with MPDZ_2, O75970; “below the threshold” with SYNPO2L, Q9H987; “below the threshold” in the test with Q96SB3; “below the threshold” in the test with SNTB2, Q13425.
